Data on one substance can be found in US20150118238A1.

In the test the target is RON on RON-transfected NIH 3T3 cells (UniProt Q04912). In words: IHC on FFPE RON-transfected NIH3T3 cells, Aperio Positive Pixel Count.

In turn, EP1132Y antibody (Anti-RON) yielded a Relative Positive Pixel Intensity Score of 221.
